This data set can be described thus: label from the status in PepcDB records.
As to “MSDKLLIMFHGVGSNGVDLLPIAQYWQRQIDGLDIAYPNAPFPFMHSHEVFEWFSLTGITPQNRYERIVDAREYFDQTILRTLQEHKFQGDLSQLIFCGFSQGTIMCLDAIVSGRWSVAGCIGFSGRLASPVESDVRTTKISLMHGEADAVIAVEEGREAYHTLNEAGFDVQLETYTGLGHSVNELELKKGLEFLQAL”, the protein production result is “failed”.

For “MSDKRNPRISSRKQPQQARSSELVASILEAAVQVLASEGAQRFTTARVAERAGVSIGSLYQYFPNKAAILFRLQSDEWRRTTRLLGEILEDTTRPPLERLRRLVLAFVRSECEEAAIRVALSDAAPLYRDADEAREVKAEGARVFQAFLREALPEVAEAERSLAGDLLTTTLGAVGKQFSEQPRSEAEIERYAEALADMLCAYLAALGER”, the protein production result is reported as “not failed”.

Consider “MSDLLPLISVYGYVAALLLISEKTLKNEVVSRKFLHIMVGNIAFILPFFESRFVMAFLAAFPFVVLTFLMSPHSPVKLSSRTSVAGHGLGLVYYSIAWTVLAYAFFDRPDVIAVGIMAMSYGDGLASLIGGRYGKRKFRILGDEKSLEGSVAMFLGCVASFSVVSLYYHGSAGPLLLPLAAFATVVEAVTPKGLDNLSVSILTAILYFWMA”, for which the protein production entry was “failed”.

For “MSDLQSLQPKLLWQWFDQICAIPHPSYKEEQLAQFIINWAKTKGFFAERDEVGNVLIRKPATVGMENRKPVVLQAHLDMVPQANEGTNHNFDQDPILPYIDGDWVKAKGTTLGADNGIGMASALAVLESNDIAHPELEVLLTMTEERGMEGAIGLRPNWLRSEILINTDTEENGEIYIGCAGGENADLELPIEYQVNNFEHCYQVVLKGLRGGHSGVDIHTGRANAIKVLLRFLAELQQNQPHFDFTLANIRGGSIRNAIPRESVATLVFNGDITVLQSAVQKFADVIKAELALTEPNLIFTLEKVEKPQQVFSSQCTKNIIHCLNVLPNGVVRNSDVIENVVETSLSIGVLKTEDNFVRSTMLVRSLIESGKSYVASLLKSLASLAQGNINLSGDYPGWEPQSHSDILDLTKTIYAQVLGTDPEIKVIHAGLECGLLKKIYPTIDMVSIGPTIRNAHSPDEKVHIPAVETYWKVLTGILAHIPSR”, the protein production entry is given as “not failed”.

As to “MSDLVRVERKGRVTTVILNRPASRNAVNGPTAAALCAAFEQFDRDDAASVAVLWGAGGTFCAGADLKAFGTPEANSVHRTGPGPMGPSRMMLSKPVIAAVSGYAVAGGLELALWCDLRVAEEDAVFGVFCRRWGVPLIDGGTVRLPRLIGHSRAMDMILTGRGVPADEALAMGLANRVVPKGQARQAAEELAAQLAALPQQCLRSDRLSALHQWGLPESAALDLEFASIARVAGEALEGARRFAAGAGRHGAPAPRAEQGDTL”, the protein production entry is reported as “not failed”.

Regarding “MSDPGFEYAPIGLVELENRVIRRCNLHFASMFGGQESEYRDMPLLRLYPSHEDFERIGKRGLQVMRETGYYTDERIMRRRDGDLFWCRARGKSLTPDDPFRHGIWSFADISEERRVVELTPREREVALLTCRGLSAKEVGVELGLSYRTIEAHRARLLQKFGARKLPELVAKLSGMPL”, the protein production entry is “failed”.

With “MSDPGNEQNGDGIDPAIVEVLLVLREAGIENGATPWSLPKIAKRAQLPMSVLRRVLTQLQAAGLADVSVEADGRGHASLTQEGAALAAQLFPDPF”, the protein production entry is recorded as “not failed”.

On to “MSDPYERVNGGRLAFKGGDLATRKSIEKKKKKKQKKNKEKLDGVEDGAKTAPDGSPPPAAAAGDEDIYSIDAAKKKKYDDLFPVEAKKFGYIPKANFESREDALDDRVKKKADRYCK”, for which the protein production entry is on record as “failed”.

For the sequence “MSDQKNRRNALIGAAFLMATSAIGPGFLTQTATFTQALAASFGFVILLSILLDIGAQLNIWRIVAVSEKQAQDIANQVLPGAGYFLAVLIVMGGLAFNIGNVGGAGLGLNLLTGLSPETGAVISGVIAIGVFLFKEAGKVMDKFAQVMGFVMIALTVYVAWQANPPLADAAVHTFMPEKLDAMAIVTLVGGTVGGYITFAGAHRLLDAGIKGKSALPEVSQSSVRAILIASIMRIVLFLAVLGVVSQGVQLNPDNPASTPFEYAAGYIGLLIFGVVIWAASITSVIGAAYTSVSFFSGLSPSIERNKNKWIIAFIAVSTAVFSTIGKPAQVLVFVGALNGLILPISLGLILIAAYKTKIVGDYKHPLWLTVSGVIVVGLMAVLSAITISKYIGGLFG”, the protein production entry is listed as “failed”.

In the case of “MSDQPMNEVQDNAAPANPWLELRRLTPARIALGRTGTSLPTCAQLDFQAAHAQARDAVHLAFDHAAISAQLAEKGRETILLHSAAADRDSYLQRPDLGRRLNDESAQTLRDYAAAHPGGLDLAVVVADGLSALAVHRHAVPFLTRLEEQASAEGWTLSPVLMVEQGRVAVADEIGELLGAKMVVILIGERPGLSSPDSLGLYFTYAPKVGLNDAHRNCISNVRLEGLSYAMAAHRLLYLMREACKRQISGVSLKDEAQLNTLESDDSAENSDRKIGNFLLDGPAVPH”, the protein production result is listed as “not failed”.

In the case of “MSDRKTMWDERYDTTDFVYGREPNAFLAEVVQQIPPGDVLCLAEGEGRNAVFLAKQGHRVLAVDSSAVGLVKAARLAEESGVRIETETADLAEFAIEPVCWDAIVSIFCHVPPQVRRALHRKVVEGLRPGGLFILEAYTPAQLKLRTGGPPTEEVMMTLAGLREELAGLEFLQAREIEREVVEGRFHTGRGAVVQVVARKP”, the protein production entry is reported as “failed”.

Turning to “MSDRSSLFDVRSSTSVTLDQVVRRDTVEIPDEAALAMPVQPLSFWQGGARRATALTQDMNLRRWMLGLMTIAMGVAGWKASFDTIALGGVTRLEAVVLTLLAPLFLALSLWFCTALIGFVVLMGRPKDPLGIDSEAPMPKLHTRTAILMPVYNEDAAAVFARLRAMDASIAETGSARNFDIFVISDTRDAQVALAEQACFARFRREANCNVYYRIRKENTGRKAGNVADWVSRWGSAYEHMLVLDADSLMTGEAMVRLADAMERHPGAGLIQTMPMIINGQTIFARTLQFATRLYGRVAWTGLAWWSGSESSFWGHNAIVRTRAFAETCGLPHLPGPKPFGGEVMSHDALESALLRRGGWSVHLAPYLDGSYEESPSNLLDFATRDRRWCRGNIQHVPLIALPGLHWMSRMHLVIGVLSYALSPLWFFCLSAGLISRALMPELKKAAFTMADLKAAAHALIDWSEIQATAWAMIITFVLLFGPKILGAILVLARKGEVKGFGGKRRMAAGLGVEMLLSALVAPMLMFTQTRAIVEILAGKVGGWAAQRRDADKVDFKEAWAAMGWISLSGLILAASFWFTPDLLTATAPILAGLVLAVPLTMLGAHKVAGLKLKANGLFMTPEERRPPAIVRAAVGAACEPPIRWFARNGRPIGPTTKIRDAA”, the protein production result is “failed”.

For “MSDSLPQRNGGQILVEALRRNAVDTVYCIPGESYLPVLDALYDTDGIRTVVTRHEGAASNMADAYGKLTGRPGICFVTRGPGATHAANGVHTAQQDSTPMILFVGQVESAFKGREAFQEVDYVQMFSGLAKWAVEIDRIERIPEIVGRAFSVATSGRPGPVVVALPEEILFGSAQVADAPEPRVLPGRPGATAMAELRELLANARRPLLVLGGSGWDSAARKRLGAFVEANGLPVATSFRRQDLFDNRDPHYAGQLGFGAAPALLERLRQADLLLVVGARLGETPSAGYSLVRSPAPAQTLIHVHPDSAELNRVYLARLPIQATPCAFAEALADLAPLPSSTWQDWREAAHADYLAYSTPAASDPAVQGVDLASVVAYLSENLPDDAVIANGAGNYAVWVHRFYRYRQARTQLAPTNGAMGYGLPAAIAASLRDPQRSVVCFAGDGCFMMYPQELATAAQFGATPVVIVVNNGMLGTIRMHQEREYPGRVSATRLDNPDFVALARAFGAHAERVECSADFPAAFRRARESGRPALLELLTDPRQITPQA”, the protein production result was “failed”.

As for “MSDTPQAILLMGPTASGKTGLALELARRFPVEIVSVDSALVYRDMDIGTAKPTAEEMAACPHHLIDVISPLQSYSAAQFHADANRLIADIQARGKLPLLVGGTMLYYKALLEGLSDLPQADAALRAELDADAALLGWPAMHARLAELDPATASRLNPNDSQRIHRALEVCLLSGKPMSELIAQGKEAAAGFRFLPLALVPRERGWLHARIAERFRIMLEQGFLDEVSRLRAKYPELTLNLPSMRCVGYRQAWEHQDGLYGHDEFVERGVAATRQLAKRQLTWTRSLDAIPVDAQRDGLAGLLGDAVDDFLAGRPPAESLRYAGDFLEHHHHHH”, the protein production result is on record as “not failed”.

As to “MSDVEDVPETQLEIDVSDGAGLEDEDDDDMEQITAQKVLEIIETAWINEMCAPEILPSQTDMLELMVSQVAHMEEQMRDLDKNDFRAVVHSMELERVRYIMASYLRCRLQKIETFTQHILNQEESREPDDKRLSPEETKFAQEFASNVDEYFHKVATQYMPNQQRGEAEQRIVTPNLMSHVFLKANVAVPAVIVGVDDEEVDMAAGSQHIIPYQLVADLIQNNQAQLI”, the protein production entry is given as “failed”.

(Values after a protein production outcome set (Wang et al. 2014).)
